Test results published in US20220204603A1 (PHARMABCINE, published 2022).

T1: biotinylated human Ang2 protein (human, UniProt O15123 19-496, limits assumed, biotinylated (sites not given))
T1 construct: also called hAng2
T1 sequence (looked up): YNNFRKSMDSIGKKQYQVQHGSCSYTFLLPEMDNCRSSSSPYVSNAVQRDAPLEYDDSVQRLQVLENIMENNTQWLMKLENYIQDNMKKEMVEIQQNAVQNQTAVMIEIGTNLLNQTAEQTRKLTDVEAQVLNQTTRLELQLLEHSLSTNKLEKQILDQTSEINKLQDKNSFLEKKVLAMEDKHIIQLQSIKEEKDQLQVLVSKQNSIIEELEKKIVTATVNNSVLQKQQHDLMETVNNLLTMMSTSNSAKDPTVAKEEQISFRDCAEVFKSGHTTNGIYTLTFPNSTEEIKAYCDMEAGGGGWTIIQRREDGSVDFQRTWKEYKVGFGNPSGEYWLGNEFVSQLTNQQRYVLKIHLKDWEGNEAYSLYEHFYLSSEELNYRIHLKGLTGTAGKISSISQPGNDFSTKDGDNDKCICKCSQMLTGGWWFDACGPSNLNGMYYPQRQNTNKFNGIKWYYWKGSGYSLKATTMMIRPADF

T2: human Ang2 (construct not stated) (human, UniProt O15123 19-496, limits assumed)
T2 sequence (looked up): T1 sequence (looked up)

T3: His-tagged mouse Ang1 (sino, 50300-M07H) (mouse, UniProt O08538 20-498)
T3 construct: Bought protein; not shown: His tag
T3 sequence (looked up): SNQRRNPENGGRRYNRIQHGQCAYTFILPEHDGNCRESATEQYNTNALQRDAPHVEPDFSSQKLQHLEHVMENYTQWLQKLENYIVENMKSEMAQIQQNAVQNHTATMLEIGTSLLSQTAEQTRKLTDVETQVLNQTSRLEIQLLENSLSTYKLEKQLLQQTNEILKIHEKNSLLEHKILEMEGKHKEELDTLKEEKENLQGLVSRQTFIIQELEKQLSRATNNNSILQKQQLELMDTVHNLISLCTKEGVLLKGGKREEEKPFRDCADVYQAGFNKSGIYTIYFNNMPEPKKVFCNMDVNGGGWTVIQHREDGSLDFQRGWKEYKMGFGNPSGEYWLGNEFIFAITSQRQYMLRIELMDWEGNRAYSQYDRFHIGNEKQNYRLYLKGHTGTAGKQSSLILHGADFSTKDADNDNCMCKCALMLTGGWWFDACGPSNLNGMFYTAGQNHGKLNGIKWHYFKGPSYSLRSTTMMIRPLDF

B1: No. 8 anti-Ang2 antibody (IgG) (antibody, V domains shown)
VH: QVQLVESGGGLVKPGGSLRLSCAASGFTFSSYSMNWVRQAPGKGLEWVSSISASDGATYYADSVRGRFTISRDNSRSTLYLQMNSLRAEDTAVYYCAKILAGYSGPMGGMDVWGQGTTVTVSS
VL: DIQMTQSPSSLSASVGDRVTITCRASRDISNYLAWYQQKPGKAPKSLIYGASNLQSGVSSQFSGSGSGTDFTLTINSLQPEDSATYYCQQYYSYPLTFGGGTKVDIKR
notes: IgG form: VH cloned into Invivogen pfusess-hchg1, VL into Invivogen pfuse2ss-hclk; also called 3A10
B2: No. 46 anti-Ang2 antibody (IgG) (antibody, V domains shown)
VH: QVQLVESGGGLVQPGRSLRLSCAASGFTFDDCAMHWVRQAPGKGLEWVSGISGNSKNVAYADSVKGRFSISRDDAKNSLYLQMNSLRAEDTAVYYCARDPAYSQFDYWGQGTLITVSS
VL: QSALTQPPSLSATPGQRVTISCSGSSSNVGGYPVNWYQQVPGAAPKLLMYTDYKRPSGVPDRFFGSKSGTSASLAISGLQSEDEADYYCATWDDNLNGYVFGTGTKVTVLG
notes: IgG form: VH cloned into Invivogen pfusess-hchg1, VL into Invivogen pfuse2ss-hclk; also called 3C6
B3: No. 41 anti-Ang2 antibody (IgG) (antibody, V domains shown)
VH: QVQLVESGGGLVQPGGSLRLSCEASGFAFGRYEMNWVRQAPGKGLEWIAYIDTGGGAKVYADSVKGRFTISRDDSKNSLYLQMNSLRAEDTAVYYCTTEGLMNGLHFDMWGQGTMITVSS
VL: DIQMTQSPSTLSASVGDRVAITCRASQAISTWLAWYQQKPGKAPKLLIYTASTLESGVPSRFSGSGSGTDFTLTINSLQPDDFATYYCQQLNSYPYTFGGGTKVEIKR
notes: IgG form: VH cloned into Invivogen pfusess-hchg1, VL into Invivogen pfuse2ss-hclk; also called 2B2
B4: No. 4 anti-Ang2 antibody (IgG) (antibody, V domains shown)
VH: QVQLVESGAEVKRPGESLRISCKTSGYSFTSYWIHWVRQMPGKELEWMGSIYPGNSDTRYSPSFQGHVTISADSSSSTAYLQWSSLKASDTAMYYCTTEGLMNGLHFDMWGQGTMVTVSS
VL: DIVMTQTPLSLPVTPGEPASISCRSSQSLLHSLGDNYLDWYLQKPGQSPQLLIYLGSKRAAGVPDRFSGSGSGTDFTLKISRVEAEDVGVYYCMQSLQTPPYTFGQGTKLEIKR
notes: IgG form: VH cloned into Invivogen pfusess-hchg1, VL into Invivogen pfuse2ss-hclk; also called 2D8
B5: No. 3 anti-Ang2 antibody (IgG) (antibody, V domains shown)
VH: QMQLVQSGGGLVQPGRSLKLSCAASGFSFDDYAMHWVRQAPGKGLEWVATIKDDGSQTYYVDSVKGRFTISRDNAKSSLFLQMNSLRAEDTAVYYCTTEGLMNGLHFDMWGQGTMVTVSS
VL: LVLTQPPSVSGAPGQGVTISCTGSSSNIGAGYDVHWYQQFPGTAPKLLISGNNNRPSGLPDRFSGSKSGTSASLAITGLQAEDEADYYCQSYDSRLGVVFGGGTKLTVLG
notes: IgG form: VH cloned into Invivogen pfusess-hchg1 (heavy chain constant region), VL into Invivogen pfuse2ss-hclk (light chain constant region); Expressed in Expi293F, purified on Protein A; also called 1D10

Each binder was assayed against T1, biotinylated human Ang2 protein (assay: competition ELISA: antibody preincubated with biotinylated hAng2, binding to coated human Tie2-Fc).
Procedure: (§1) 1 μg/ml (100 μl per well) of a human Ti32-Fc (R&D Systems, 313-TI) or mouse Tie2-Fc (R&D Systems, 762-T2-100) solution, an integrin α3/β1 solution (R&D systems, 2840-A3-050), or an integrin α5/β1 solution (R&D systems, 3230-A5-050) was added to a 96-well immunoplate (Nunc, US) and then allowed to stand overnight at 4° C. for adsorption. The next day, the plate was washed four times with PBS containing 0.05% Tween-20 (hereinafter, referred to as PBST), and 200 μl of a 2% BSA/PBST solution was added to each well and then allowed to stand at room temperature for 1 hour to perform blocking. Anti-Ang2 candidate antibodies were serially diluted 4-fold at a maximum of 1000 nM, and biotinylated human Ang2 protein was made to a final concentration of 100 ng/mL or 625 ng/mL, followed by previous binding at room temperature for 1 hour. […] The plate was washed three times with PBST, 100 μl of HRP-conjugated streptavidin (R&D Systems, DY998) diluted to 1:200 was added to allow a reaction to occur at room temperature for 1 hour, thereby inducing binding, and the plate was washed four times with PBST, followed by color development using 100 μl of a TMB substrate reagent. The color development reaction was stopped by adding 50 μl of 2N H₂SO₄, and a Sunrise microplate reader (TECAN, CH) was used to measure specific absorbance OD₄₅₀ (FIGS. 4 and 5).

Binder | IC50 [nM]
B1 | 0.495
B2 | 0.337
B3 | 0.475
B4 | 0.462
B5 | 0.491

Each binder was assayed against T1, biotinylated human Ang2 protein (assay: competition ELISA: antibody preincubated with biotinylated hAng2, binding to coated integrin α5/β1).
Procedure: as §1

Binder | IC50 [nM]
B1 | 1.89
B2 | 1.9
B3 | 1.49
B4 | 1.57
B5 | 1.53

These binders were tested against T2, human Ang2 (construct not stated) (assay: cell-based or functional assay).

Binder | IC50 of Tie2 phosphorylation (Phospho-Tie2 ELISA) in human Tie2-overexpressing cells treated with human Ang2 (5 µg/ml) preincubated with antibody [nM]
B1 | 20.2
B2 | 10.1
B3 | 11
B4 | 12.3
B5 | 8.53

The binders below were run against T3, His-tagged mouse Ang1 (sino, 50300-M07H) (assay: binding ELISA, His-tagged mouse Ang1 coated at 1 µg/ml, detection with HRP anti-human IgG(kappa) [panel 'mouse Ang1 binding ELISA']).
Procedure: 1 μg/ml (100 μl per well) of a His-tagged human (R&D systems, 623-AN/CF) or mouse (sino, 50298-M07H) Ang2 solution or a His-tagged human (R&D systems, 923-AN/CF) or mouse (sino, 50300-M07H) Ang1 solution was added to a 96-well immunoplate (Nunc, US) and allowed to stand overnight at 4° C. for adsorption. The next day, the solution was washed three times with PBS containing 0.05% Tween-20 (hereinafter, referred to as PBST), and 200 μl of a 2% BSA/PBST solution was added to each well and then allowed to stand at room temperature for 2 hours to perform blocking. After washing three times with PBST, 100 μl of each test antibody solution was added to each well according to concentration to cause binding at room temperature for 1 hour, and then washing was performed three times with PBST, 100 μl of HRP-conjugated goat anti-human IgG(kappa) (bethyl lab #A80-115P) diluted to 1:2000 was added and allowed to react at room temperature for 1 hour, thereby inducing binding, and after washing three times with PBST, color development was performed using 100 μl of a TMB substrate reagent. The color development reaction was stopped by adding 50 μl of 2N H₂SO₄, and a Sunrise microplate reader (TECAN, CH) was used to measure specific absorbance OD₄₅₀₋₆₃₀ (FIG. 3).

Binder | binding result
B1 | no binding (tested: 2 mg/ml (unit as read in the legend))
B2 | no binding (tested: 2 mg/ml (unit as read in the legend))
B3 | no binding (tested: 2 mg/ml (unit as read in the legend))
B4 | no binding (tested: 2 mg/ml (unit as read in the legend))
B5 | no binding (tested: 2 mg/ml (unit as read in the legend))
